Measurements: patent publication US20180312557A1, “Leg1 Protein, Leg1 Gene, and Uses and Drugs thereof” (ZHEJIANG UNIVERSITY, priority 2016, published 2018)

Columns and labels:
EGFR [1] = target: T1, EGFR (Homo sapiens, UniProt P00533); test: Effect of EGFR inhibitor on mLeg1-induced Akt and EGFR phosphorylation in HepG2 cells; format: cell-based; conditions: HepG2, 15 minutes
T1 construct: endogenous in cells; host or cells: HepG2
From the text: 20.1 Culture of the HepG2 cell: reference may be made to step 18.1 for details.

[2] = tested on: Akt phosphorylation in the liver; test: Liver Akt phosphorylation after intragastric administration of mLeg1; format: in vivo, mouse
Method: (§1) 22.1 The column chromatography partially purified mLeg1 protein was intragastrically administered to the mLeg1^Δ/Δ mice at 50 ng of mLeg1 per gram of body weight of the mice.
(§2) 22.2 The mice were sacrificed at different time points (0, 10, 20, 40, 60 min) after intragastric administration and liver samples were collected, an immunoprecipitation experiment was conducted to pull down mLeg1 protein (if there is any) and its interacting protein in the liver by using mLeg1 antibodies Reference may be made to steps 21.2-21.5.
This may result from the fact that mLeg1 binds with EGFR rapidly, and transmitted downstream signals rapidly, as in in vitro experiments, mLeg1 can activate EGFR within 1 minute and the phosphorylation level of EGFR began to decrease within 3 minutes. Further, the inventors of the present disclosure also detected the activation of such intragastrically administered mLeg1 protein on downstream Akt. […] According to the above results, mLeg1 secreted from the salivary glands can be transferred into the liver and activates EGFR in the liver, thereby activating Akt to finally regulate the physiological functions of the liver cells.

EGFR [3] = target: T2, EGFR (Mus musculus, UniProt Q01279); test: Co-immunoprecipitation of mLeg1 and EGFR in cells isolated from liver homogenate; format: binding; conditions: liver cells incubated at 4° C. with crosslinking agent DSP
T2 construct: from tissue; host or cells: liver of mLeg1^Δ/Δ mice
Method: Since the reaction of mLeg1 activating EGFR is very short and the EGFR will be degraded soon after being activated, the inventors of the present disclosure used mLeg1 to incubate the liver cells at 4° C., and simultaneously added a crosslinking agent DSP thereto to stabilize the interaction between mLeg1 and its potential interacting protein, and then washed mLeg1 and lysed the liver cells using NP40 lysate for co-immunoprecipitation. The experimental method was as follows.
21.1 Antibody crosslinking: 30 μl of proteinA/G (beyotime Cat. No. P2012) was centrifuged at a low speed (500-1000 g) to remove the supernatant, and then washed twice using 4° C. pre-chilled PBS, then added with mLeg1 antibody (20 μg of antibody were dissolved in 1×100 μl PBS) for incubation at room temperature for 30 minutes, and then centrifuged to remove the supernatant. The beads were washed three times with 300 μl of PBS, then incubated with 50 μl of DSS solution (5 μl 10×PBS, 36 μl H2O, 9 μl 2.5 mM DSS (Thermo, Cat. NO. 21655)) for 50 minutes at room temperature. After centrifugation to remove supernatant, the beads were washed three times with 50 μl of 100 mM pH 2.2 glycine, washed twice with 300 μl of PBS containing 1% NP40, and finally washed once with 300 μl of PBS. […]
21.5 The protein pulled down by the mLeg1 antibody was detected by Western blot.

[4] = tested on: Akt phosphorylation of the HepG2 cells; test: Akt phosphorylation of HepG2 cells incubated with salivary gland cell culture supernatant (Western blot); format: cell-based, human; conditions: wild type supernatant containing mLeg1
Method: 14.1 Culture of human liver cancer cells HepG2: 10% newborn calf serum (GIBCO Cat. No. 16010-159) in DMEM high-glucose culture medium was used to culture the cell line. Cells were kept in a 37° C. incubator with 5% CO2, and saturated humidity. At the time of passage, the culture solution was thoroughly removed, and the left cells was digested with 0.25% typsin (EDTA-free, Sigma Cat. No. T4549), and an appropriate amount of cells were subjected to subculture or subsequent experiments.
14.2 The adherent HepG2 cells were incubated using the culture supernatant of the primary culture of the wild-type mouse salivary gland cells and the culture supernatant of the mLeg1^Δ/Δ mice, and the cell samples were collected 20 minutes later and 10 hours later.
14.3 The content of p-Akt was detected using an Akt phosphorylation antibody by Western blot, so as to reflect Akt phosphorylation level.

EGFR [5] = target: T2, EGFR; test: EGFR interacting with mLeg1 in liver after intragastric administration (co-immunoprecipitation); format: in vivo
Method: as §1, §2

EGFR phosphorylation (EGFR [1]; mLeg1 treatment): induced EGFR phosphorylation
Akt phosphorylation (EGFR [1]; partially purified mLeg1 vs BSA control): could be induced
interaction with EGFR (pull-down by mLeg1 antibody) (EGFR [3]): EGFR could be co-precipitated
time at which the amount of EGFR that interacts with mLeg1 reached the maximum (EGFR [5]): 10 min
B1: mLeg1 protein: mouse secretory protein (SEQ ID NO: 2) encoded by mLeg1 gene, partially purified from salivary glands by column chromatography (protein, listed as Mus musculus)
chain: MAVLASWVWVLAGCFCAAVAEVSDSSDPYPPLWEDSPEQLSDYMMEDGNYIINPWVYTDRMGMYRILLEETAMYFAKYGPENEQNLLWGLPLQFGWQYQSGRLADPTGMTDCGNELNESLCVSVDSWWADINYYLSVIPFLAAVDSGITGISPNQITILPPPKDQMRFCYNVSDCQSAVPGTMNRWRDFFQYMQLNSSDFDGLLNYLWEAHASSLDYPTSAFGDRYNFYSEKEANFEENWAIAVNYLAAARLPTTQNRTYSFQRGLPPRVLVDTDIAPFIPDFTPLQNEVLVSLKLLGDTDRNSGSLSLTLWENLMSTKLARTLFLKAFEEFLATSS
modifications: partially purified
Akt phosphorylation in the liver ([2]; 10 minutes after intragastric administration): increased
Akt phosphorylation in the liver ([2]; 40 minutes to 60 minutes after intragastric administration): more significant
time within which Akt phosphorylation is induced [4]: ≤ 20 min
